Measurements reported in US6410255B1, “Optical probes and assays” (priority 1999, dated 2002).
Blank lines part the entries; values can stand above or below the sequence they belong to. Where no end group is shown, it is not given here. [ ]: non-standard residue; d: D form. pS = N[C@@H](COP(=O)(O)O)C(=O)O

Experiments:
[1] = target: T1, v-Abl kinase (Abelson murine leukemia virus, UniProt P00521); assay: v-Abl kinase phosphorylation of optical probe, fluorescence readout after chymotrypsin; assay type: biochemical
T1 construct: purchased Calbiochem

[2] = target: T2, chymotrypsin (Bos taurus, UniProt P00766); assay: Chymotrypsin cleavage of phosphorylated and non-phosphorylated tyrosine kinase optical probes; assay type: biochemical, bovine; parameters: purchased Calbiochem 230832
[3] = target: PP2A (Homo sapiens, UniProt P67775); assay: PP2A inhibitor assay with optical probe; assay type: biochemical; details: no inhibitor
Experimental: To determine if the optical probe phosphatase assay could detect inhibitors of PP2A, the phosphatase assay was performed in the presence or absence of 100 nM microcystin-LR. PP2A assays were set up as described above, and were incubated at 30 C for 2 hours. Reactions were diluted to 100 μL with 50 mM HEPES, pH 7.5 followed by the addition of chymotrypsin to 0.2 μM. Fluorescence values were measured on the Cytofluor after a 1.5 hour incubation at room temperature. As described above, treatment of the phosphorylated optical probe (SEQ. ID. NO: 23) with PP2A followed by chymotrypsin gave a final 460/530 ratio of 8.8±0.1. […] Thus, the optical probe based phosphatase assay can detect inhibitors of PP2A activity.

[4] = target: PP1 (Homo sapiens, UniProt P62136); assay: PP1 inhibitor assay with optical probe; assay type: biochemical; details: no inhibitor; chymotrypsin 0.2 μM, 2 hour
Experimental: To determine if the optical probe protein phosphatase assay could detect inhibitors of PP1, the phosphatase assay was performed in the presence or absence of 1 μM microcystin-LR, a potent inhibitor of PP1. Phosphatase assays were set up as described above except the phosphatase was allowed to pre-incubate with microcystin-LR for 10 minutes before the addition of phosphorylated or non-phosphorylated optical probes (SEQ. ID. NO: 23). PP1 reactions were incubated at 30 C for 1 hour and then diluted to 100 μL in 50 mM HEPES, pH 7.5 followed by the addition of chymotrypsin to 0.2 μM. Fluorescence values were measured on the Cytofluor after a 2 hour incubation at room temperature as described above. After treatment of the phosphorylated optical probe with PP1 followed by chymotrypsin, the 460/530 ratio was 13.2±0.2. […] Thus, the present invention could be used to detect inhibitors of PP1 activity.

[5] = target: T2, chymotrypsin; assay: Chymotrypsin cleavage of optical probe with or without casein kinase 1 phosphorylation; assay type: biochemical
From the text: To measure casein kinase 1 activity, an optical probe was designed as described above. In this case, the kinase substrate was designed so that the point of phosphorylation was located at the P′2 position (underlined in SEQ. I.D. NO: 17 below) with respect to the scissile bond cleaved by chymotrypsin, which enables the creation of a recognition motif suitable for casein kinase 1. A substrate peptide ([…], SEQ. ID. NO: 17) was synthesized and labeled with fluorescein isothiocyanate at the N-terminus and 7-hydroxycoumarin-3-carboxamide at the C-terminus as described in Example 1.
Samples of phosphorylated and non-phosphorylated optical probes were prepared and tested as described in Example 1. In this case, complete phosphorylation of the optical probe (1 μM) was obtained after room temperature incubation for 15 to 30 minutes in the presence of 500 Units of casein kinase 1 (New England BioLabs) in 50 mM Tris-Cl, pH 7.5, 10 mM MgCl2, 5 mM DTT, and 200 μM ATP.
To determine the relative proteolytic sensitivity of phosphorylated and non-phosphorylated optical probes, samples of both were incubated with various concentrations of chymotrypsin and the cleavage monitored by measuring the 460/530 emission ratio as described in Example 1.

[6] = target: protein phosphatase 2A (PP2A) (Homo sapiens, UniProt P67775); assay: Protein phosphatase 2A dephosphorylation of optical probe; assay type: biochemical; details: 1.5 hour chymotrypsin incubation
Experimental: The optical probes were also evaluated to determine if they could be used to measure protein phosphatase 2A (PP2A) activity. Phosphorylated and non-phosphorylated samples of the CKI optical probes ([…]) were prepared and incubated with 0.03 units of PP2A as described above, except MnCl2 was not included. After dilution and addition of chymotrypsin as described above, fluorescence values were measured using a 96 well plate reader (Cytofluor). After a 1.5 hour chymotrypsin incubation, the 460/530 emission ratio of the phosphorylated optical probe was 1.8±0.2 (Table 18).

[7] = target: protein phosphatase I (PPI) (Homo sapiens, UniProt P62136); assay: Protein phosphatase I dephosphorylation of optical probe; assay type: biochemical
Experimental: To determine if the optical probes could be used to detect serine/threonine phosphatase activities, samples of the casein kinase 1 specific phosphorylated optical probes were prepared and treated with various serine/threonine protein phosphatases. To do this, the casein kinase 1 optical probe ([…], SEQ. ID. NO: 17) (100 μM) was phosphorylated to completion with CKI (2000 units) in a 100 μL reaction containing 200 μM ATP for 5 hours at 30° C. A mock kinase reaction was performed which contained no ATP for preparation of control, non-phosphorylated optical probes. The resistance of the phosphorylated optical probe to chymotrypsin cleavage (data not shown) confirmed complete phosphorylation of the CKI-treated optical probe. Phosphorylated and non-phosphorylated samples of the optical probe (2 μM) were incubated in a 50 μL volume with or without 1 unit of the serine/threonine phosphatase protein phosphatase I (PPI) for 2 hours at 30° C. in a buffer consisting of 50 mM Tris-Cl, pH 7.0, 0.1 mM EDTA, 5 mM DTT, 0.01% Brij-35, and 1 mM MnCl2. The reactions were diluted to 100 μL with 50 mM HEPES, pH 7.5, incubated with chymotrypsin (0.2 μM) for 1 hour at room temperature, and fluorescence values were measured on the Cytofluor as described above. Before chymotrypsin addition all reactions had similar 460/530 ratios of about 1.2.

[8] = target: T2, chymotrypsin; assay: Chymotrypsin cleavage of optical probe with or without ERK phosphorylation; assay type: biochemical; details: for 460/530 Emission Ratio, Negative Control (No Active Kinase) / 460/530 Emission Ratio, Positive Control (Active Kinase): 4 nM chymotrypsin
Experimental: This substrate (100 μM) was phosphorylated by incubation at 30 C for 3 hours in a 100 μL reaction containing 500 ng ERK (Biomol) and 500 μM ATP in a buffer consisting of 50 mM Tris-Cl, pH 7.5, 10 mM MgCl2, 1 mM EGTA, 2 mM DTT, and 0.01% Brij-35. To test the proteolytic sensitivity of phosphorylated and non-phosphorylated samples, 2 μL of the mock (no kinase) or kinase reaction was diluted to 100 μL in a buffer containing 50 mM HEPES, pH 7.5, 10 mM CaCl2, and 0.01% Brij-35, and incubated with chymotrypsin at a concentration of 4 nM. Cleavage reactions were monitored on the Cytofluor for 1 hr. […] The maximum fold difference in 460/530 ratio was about 15.2 and occurred after 30 minutes of cleavage.

Chain of protein phosphatase I (PPI) (P62136 whole entry): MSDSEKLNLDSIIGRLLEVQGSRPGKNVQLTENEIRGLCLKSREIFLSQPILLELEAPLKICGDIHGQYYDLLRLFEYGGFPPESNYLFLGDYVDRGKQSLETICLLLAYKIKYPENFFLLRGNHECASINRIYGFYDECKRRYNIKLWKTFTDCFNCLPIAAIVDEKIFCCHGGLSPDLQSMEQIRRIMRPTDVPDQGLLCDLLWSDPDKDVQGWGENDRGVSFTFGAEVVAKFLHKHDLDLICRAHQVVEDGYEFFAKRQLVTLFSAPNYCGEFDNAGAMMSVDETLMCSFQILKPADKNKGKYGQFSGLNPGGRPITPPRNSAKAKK
Chain of PP2A (P67775 whole entry): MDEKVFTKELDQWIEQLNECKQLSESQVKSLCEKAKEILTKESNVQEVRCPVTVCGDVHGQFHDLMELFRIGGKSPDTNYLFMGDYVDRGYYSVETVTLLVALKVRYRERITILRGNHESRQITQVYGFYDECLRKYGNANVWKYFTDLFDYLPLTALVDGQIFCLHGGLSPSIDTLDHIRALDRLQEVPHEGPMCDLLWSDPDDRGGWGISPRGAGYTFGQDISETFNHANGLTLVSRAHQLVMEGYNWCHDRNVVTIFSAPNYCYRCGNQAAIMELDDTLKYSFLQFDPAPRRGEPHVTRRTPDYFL
Chain of protein phosphatase 2A (PP2A) (P67775 whole entry): as above
Chain of PP1 (P62136 whole entry): as the sequence (P62136 whole entry) above
T1 sequence (P00521 whole entry): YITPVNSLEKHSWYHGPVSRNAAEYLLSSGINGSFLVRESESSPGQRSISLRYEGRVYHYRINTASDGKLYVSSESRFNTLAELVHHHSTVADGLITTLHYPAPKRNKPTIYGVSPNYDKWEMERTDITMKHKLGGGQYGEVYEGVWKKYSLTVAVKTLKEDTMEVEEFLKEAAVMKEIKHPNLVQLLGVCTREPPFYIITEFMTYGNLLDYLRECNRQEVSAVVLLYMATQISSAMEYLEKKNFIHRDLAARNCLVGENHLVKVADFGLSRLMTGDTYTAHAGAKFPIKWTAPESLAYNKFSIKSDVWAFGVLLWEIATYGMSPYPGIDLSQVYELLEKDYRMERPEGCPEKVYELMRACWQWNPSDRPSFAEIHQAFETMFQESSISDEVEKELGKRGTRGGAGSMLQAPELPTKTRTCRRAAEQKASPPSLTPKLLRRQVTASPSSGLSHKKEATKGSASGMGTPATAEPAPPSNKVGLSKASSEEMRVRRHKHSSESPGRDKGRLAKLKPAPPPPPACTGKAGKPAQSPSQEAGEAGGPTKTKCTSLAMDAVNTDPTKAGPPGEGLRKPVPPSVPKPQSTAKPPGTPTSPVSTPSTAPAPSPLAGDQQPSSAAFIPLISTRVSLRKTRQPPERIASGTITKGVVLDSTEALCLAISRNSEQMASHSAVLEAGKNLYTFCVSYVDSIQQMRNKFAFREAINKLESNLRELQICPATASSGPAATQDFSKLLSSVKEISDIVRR

Sequence: AEAIYAAPL [abl substrate]
turnover of the optical probe by v-Abl [1]: 9.5 s⁻¹
Km ([1]; read-out: apparent Km for the substrate): 40 µM
difference in emission ratios of phosphorylated (non-cleaved) and non-phosphorylated (cleaved) substrate [2]: 30 fold

Sequence: GDQDYLSLDK (GDQDYL[pS]LDK; also: FITC and hydroxycoumarin carboxamide labels, places not given here) [casein kinase 1 optical probe, peptide labeled with fluorescein isothiocyanate and 7-hydroxycoumarin-3-carboxamide; casein kinase 1 substrate]
460/530 ratio Before Chymotrypsin, Non-phosphorylate Optical probe + PP2A [3]: 1.4 ± 0.0
460/530 ratio Before Chymotrypsin, Phosphorylated Optical probe + PP2A [3]: 1.3 ± 0.0
460/530 ratio After Chymotrypsin, Non-phosphorylate Optical probe + PP2A ([3]; chymotrypsin 0.2 μM, 1.5 hour): 11.1 ± 0.1
460/530 ratio After Chymotrypsin, Phosphorylated Optical probe + PP2A ([3]; chymotrypsin 0.2 μM, 1.5 hour): 8.8 ± 0.1
460/530 ratio After Chymotrypsin, Non-phosphorylate Optical probe + PP1 [4]: 13.2 ± 0.1
460/530 ratio After Chymotrypsin, Phosphorylated Optical probe + PP1 [4]: 13.2 ± 0.2
460/530 Emission Ratio, Negative Control (No Active Kinase) ([5]; chymotrypsin 0.04 μM): 3.0
460/530 Emission Ratio, Positive Control (Active Kinase Only) ([5]; chymotrypsin 0.04 μM): 1.2
Fold difference in ratios ([5]; chymotrypsin 0.04 μM): 2.5
460/530 Emission Ratio, Negative Control (No Active Kinase) ([5]; chymotrypsin 0.1 μM): 6.6
460/530 Emission Ratio, Positive Control (Active Kinase Only) ([5]; chymotrypsin 0.1 μM): 1.4
Fold difference in ratios ([5]; chymotrypsin 0.1 μM): 4.7
460/530 Emission Ratio, Negative Control (No Active Kinase) ([5]; chymotrypsin 0.2 μM): 10.9
460/530 Emission Ratio, Positive Control (Active Kinase Only) ([5]; chymotrypsin 0.2 μM): 1.7
Fold difference in ratios ([5]; chymotrypsin 0.2 μM): 6.4
460/530 Emission Ratio, Negative Control (No Active Kinase) ([5]; chymotrypsin 0.3 μM): 12.3
460/530 Emission Ratio, Positive Control (Active Kinase Only) ([5]; chymotrypsin 0.3 μM): 1.9
Fold difference in ratios ([5]; chymotrypsin 0.3 μM): 6.5
460/530 Emission Ratio, Negative Control (No Active Kinase) ([5]; chymotrypsin 0.4 μM): 14.3
460/530 Emission Ratio, Positive Control (Active Kinase Only) ([5]; chymotrypsin 0.4 μM): 2.3
Fold difference in ratios ([5]; chymotrypsin 0.4 μM): 6.2
460/530 Emission Ratio, Negative Control (No Active Kinase) ([5]; chymotrypsin 1.0 μM): 15.4
460/530 Emission Ratio, Positive Control (Active Kinase Only) ([5]; chymotrypsin 1.0 μM): 3.8
Fold difference in ratios ([5]; chymotrypsin 1.0 μM): 4.1
460/530 Emission Ratio, Negative Control (No Active Kinase) ([5]; chymotrypsin 2.0 μM): 15.6
460/530 Emission Ratio, Positive Control (Active Kinase Only) ([5]; chymotrypsin 2.0 μM): 6.0
Fold difference in ratios ([5]; chymotrypsin 2.0 μM): 2.6
460/530 Emission ratio After Chymotrypsin, Phosphorylated Control + Phosphatase (PP2A) ([6]; 0.03 units PP2A): 8.8 ± 0.1
460/530 Emission ratio After Chymotrypsin, Non-phosphorylated Control [6]: 11.0 ± 0.1
460/530 Emission ratio After Chymotrypsin, Phosphorylated Control [6]: 1.8 ± 0.2
460/530 Emission Ratio After Chymotrypsin, Phosphorylated Control + Phosphatase (PP1) ([7]; 1 unit PPI, 2 hours at 30° C., chymotrypsin 0.2 μM, 1 hour): 10.0
460/530 ratio before chymotrypsin addition ([7]; all reactions): about 1.2
460/530 Emission ratio After Chymotrypsin, Non-phosphorylated Control ([7]; chymotrypsin 0.2 μM, 1 hour): 9.8
460/530 Emission ratio After Chymotrypsin, Phosphorylated Control ([7]; chymotrypsin 0.2 μM, 1 hour): 2.0

460/530 Emission Ratio, Negative Control (No Active Kinase) ([8]; time of cleavage 0 min): 0.28
460/530 Emission Ratio, Positive Control (Active Kinase) ([8]; time of cleavage 0 min): 0.33
460/530 Emission Ratio, Negative Control (No Active Kinase) ([8]; time of cleavage 10 min): 4.17
460/530 Emission Ratio, Positive Control (Active Kinase) ([8]; time of cleavage 10 min): 0.44
460/530 Emission Ratio, Negative Control (No Active Kinase) ([8]; time of cleavage 20 min): 7.56
460/530 Emission Ratio, Positive Control (Active Kinase) ([8]; time of cleavage 20 min): 0.56
460/530 Emission Ratio, Negative Control (No Active Kinase) ([8]; time of cleavage 30 min): 10.03
460/530 Emission Ratio, Positive Control (Active Kinase) ([8]; time of cleavage 30 min): 0.66
460/530 Emission Ratio, Negative Control (No Active Kinase) ([8]; time of cleavage 40 min): 11.71
460/530 Emission Ratio, Positive Control (Active Kinase) ([8]; time of cleavage 40 min): 0.78
460/530 Emission Ratio, Negative Control (No Active Kinase) ([8]; time of cleavage 50 min): 12.73
460/530 Emission Ratio, Positive Control (Active Kinase) ([8]; time of cleavage 50 min): 0.89
460/530 Emission Ratio, Negative Control (No Active Kinase) ([8]; time of cleavage 60 min): 13.40
460/530 Emission Ratio, Positive Control (Active Kinase) ([8]; time of cleavage 60 min): 1.00
Fold difference in ratios ([8]; time of cleavage 0 min): 0.85
Fold difference in ratios ([8]; time of cleavage 10 min): 9.45
Fold difference in ratios ([8]; time of cleavage 20 min): 13.55
Fold difference in ratios ([8]; time of cleavage 30 min): 15.16
Fold difference in ratios ([8]; time of cleavage 40 min): 14.99
Fold difference in ratios ([8]; time of cleavage 50 min): 14.34
Fold difference in ratios ([8]; time of cleavage 60 min): 13.36
Sequence: VAPFSPGGRAK [optical probe designed as a substrate for extracellular signal-regulated kinase (ERK)]
